This series can be described thus: soluble on expression in E. coli; label from the status in PepcDB or PDB records.
“MMIKIAVVGSKEFMENLFPIAQKLEGIEIDPYIYLHPAESSELLKCLKPCDVIFFSGALPYYMAKEIREQLRIPSTYLQQDETTVASSILSIMYHQSIQPHNISIDLVDRSFITNVFHDIGIKESPQVLDYENMLWSKDEINRVIDFHVAKYQYGEAHLALTSIHAVYDELQKIGIPSERMIDPTQSIIHGLKDAKIKAELAKSYSATVGACIISSLELRASLLEKLDVISKELRGSFKQVDEMTCILYTTRGDIESIIKTNAIDNLFASIEGTIAIGFGYGKTVKEAEQNAKIAQSFAKNYPIDRCFYILASDKDLFGPFPKEQRVQSLKNDNPELMKIAKETKLSPANLSKIIQFSQSHPSLKFTAADLSEYLQVTRRSTERLLKKLVDYGYAHICGEEMPYQQGRPRALYELNFPLFLSF”: the “soluble on expression in E. coli” value is “not soluble”.
For “MMKDLNLSNSLFKGYNDKHGLMICGYEWGWSKADEAAYVAGEYKLPENKIDHTFANKSLYFGEQAKKWRYDNTIKNWFEMWGHPLDENGLGGAFEKSLVQTNWAATQGNTIDNPDKFTQPEHIDNFLYHIEKLRPKVILFMGSRLADFLNNQNVLPRFEQLVGKQTKPLETVQKEFDGTRFNVKFQSFEDCEVVCFPHPSASRGLSYDYIALFAPEMNRILSDFKTTRGFK” the value was “not soluble”.
In the case of “MMKKDYRTQVIEDLKKQDKAKKVLRDEQLLEELIQLEAYQKAHVIATYLAFPFEFDTSLLIEQAQRDNKSIVVPKTYPQGKMIFVVYDEADLQITKFGLKEPRSEEALEKSAIDLIHVPGLAFNNEGYRIGFGAGYYDQYLADFQGDTVSTIYSFQKFTFEPSFFDIPVKEVLVSGDLLEHHHHHH” it was “soluble”.
In the case of “MMKKEKELLVAIASQKGGVGKSVFTVLLASVLHYRKDVRVAVVDCDSPQHSIALMRERDMENVMKNDDLKVNLYRQYERIRKPAYPVIKSDPEKGVEDLRRYMDEKGETFDIVLFDLPGTLRSEGVVHTVAAMDYIFVPLKADNIVMQSSLQFTKVLEEELIAKGNCNLKGIRLFWNMVDRRGRKNLYDAWNRVIHRMGLRLLSSHIPNTLRYNKEADPVCKGVFRSTLFPPDPRQEKDSGLPELVEAAFFGRDPGITLL”, the “soluble on expression in E. coli” value was “not soluble”.
In the case of “MMKKMAIACALLSSVVASSVWADAASSLKSRLDKVSSFHATFTQKVTDGSGAAVQEGQGDLWVKRPNLFNWHMTQPDESILVSDGKTLWFYNPFVEQATATWLKDATGNTPFMLIARNQASDWQQYNIKQDGDNFVLTPKASNGNLKQFTINVGRDGTIHQFSAVEQDDQRSAYQLKSQQNGAVDPSKFTFTPPQGVTIDDQRK”, the “soluble on expression in E. coli” value is “not soluble”.
Turning to “MMKTNTKKAKYDDAELFEKVLVGMSWLESHLREIIQTMVTDADVSFEQFLILYYLDHSTDHRITVKELAADRHVSSSAISRKLTYLINNDLIVLNIDPYDRRYRYLTLTAKGEKLARVIEKVNEERLGKFLDEFGRIRTSELTDELRMVSKVLVDTKEIKG”, the “soluble on expression in E. coli” value is given as “not soluble”.
Regarding “MMLITDTGVPERYIDTDEWGGEVMLRLDDGWCAALDRNTMMCTIYEKRPLICREFEAGAEDCLTERKGIATAYL”, the “soluble on expression in E. coli” value is on record as “soluble”.
In the case of “MMLKQAAKKALGLTSRQSTPWSVGILRTYHENVIDHYDNPRNVGSFDKNDPNVGTGLVGAPACGDVMKLQIKVDEKTGQIVDARFKTFGCGSAIASSSVATEWVKGKAMEDVLTIKNTEIAKHLSLPPVKLHCSMLAEDAIKAAVKDYKEKRVKTNGAAAAGETTQA” it was “not soluble”.
Regarding “MMMFLPPEVVREIHEERVKKALENLKAIELEKELLEKVVKEEKKVSSRRRRREKETVEV”, the “soluble on expression in E. coli” value is “not soluble”.
“MMNASTKFSDNYDVKEELGKGAFSVVRRCVHKTTGLEFAAKIINTKKLSARDFQKLEREARICRKLQHPNIVRLHDSIQEESFHYLVFDLVTGGELFEDIVAREFYSEADASHCIQQILESIAYCHSNGIVHRDLKPENLLLASKAKGAAVKLADFGLAIEVNDSEAWHGFAGTPGYLSPEVLKKDPYSKPVDIWACGVILYILLVGYPPFWDEDQHRLYAQIKAGAYDYPSPEWDTVTPEAKSLIDSMLTVNPKKRITADQALKVPWICNRERVASAIHRQDTVDCLKKFNARRKLKAAISAVKMVTRMSGVLRTSDSTGSVASNGSTTHDASQVAGTSSQPTSPAAEGAILTTMIATRNLSNLGRNLLNKKEQGPPSTIKESSESSQTIDDNDSEKGGGQLKHENTVVRADGATGIVSSSNSSTASKSSSTNLSAQKQDIVRVTQTLLDAISCKDFETYTRLCDTSMTCFEPEALGNLIEGIEFHRFYFDGNRKNQVHTTMLNPNVHIIGEDAACVAYVKLTQFLDRNGEAHTRQSQESRVWSKKQGRWVCVHVHRSTQPSTNTTVSEF”: the “soluble on expression in E. coli” value was “not soluble”.
In the case of “MMNLHALPTSPRRWQCYDGGNFYQTRLRVSESPNMFKKILFPLVALFMLAGCAKPPTTIEVSPTITLPQQDPSLMGVTVSINGADQRTDQALAKVTRDNQIVTLTASRALRFLLQEVLEKQMTARGYMVGPNGPVNLQIIVSQLYADVSQGNVRYNIATKADIAIIATAQNGNKMTKNYRASYNVEGAFQASNKNIADAVNSVLTDTIADMSQDTSIHEFIKQNAR” it was “not soluble”; in that of “MMPFEAVIGLEVHVQLNTKTKIFCSCSTSFGESPNSNTCPVCLGLPGALPVLNKEVVKKAIQLGTAIEANINQYSIFARKNYFYPDLPKAYQISQFEVPIVSDGKLEIDTKEGAKIVRIERAHMEEDAGKNIHEGSYSLVDLNRACTPLLEIVSKPDMRNSEEAIAYLKKLHAIVRFIGISDANMQEGNFRCDANVSIRPKGDEKLYTRVEIKNLNSFRFIAKAIEYEIERQSAAWENGRYNEEVVQETRLFDTHKGITLSMRNKEESADYRYFKDPDLYPVFIDEKLLKEAQKINELPSAKKIRYMKDFNLKEDDANLLVSDPLLAQYFESMLHLGVKAKTSVTWLCVELLGRLKAEITLENCGVSTHMLGALAKRIDEGKISGKSAKDVLDKLLEEQGGDVDALIEQMGLSQVNDTEAIVKVIEEVLKNNADKVLEYKSGKDKLFGFFVGQAMKNLKGANPSVVNAILKEKLG”, “not soluble”; in that of “MMQIDSIEIGGKVYQFFKSDLGNAPLLFIKGSKGYAMCGYLNMETSNKVGDIAVRVMGVKTLDDMLSAKVVEASQEAQKVGINPGDVLRNVIDKL”, “soluble”.
Regarding “MMQISDTYNQKHSLFNAMNRFIGAVNNMDQTVMVPSLLRDVPLDMEVKDEVHNTIGATNYFSRTDMHGYYILLKSIRNDIEWGVVQGEDRKKDKLSNMEISRLEDGDGEEDLEKQFHYHLSGLHTVLNKLTRKAHILTNRYKEEIGFGSWGH”, the “soluble on expression in E. coli” value is on record as “not soluble”.
In the case of “MMRGSHHHHHTDPISYIIRKADSVNKALDSAVPLREPLKIHEAMRYSLLAGGKRVRPVLCIAACELVGGEESLAMPAACAVEMIHTMSLIHDDVYGEDVAVLAGDALLSFAFEHLASATSSEVSPARVVRAVGELAKAIGTEGLVAGQVVDISNVGLEHLKFIHLHKTAALLEASAVLGGIIGGGSDEEIERLRKFARCIGLLFQVVDDILDVTIADKLTYPKLMGLEKSREFAEKLNTEARDQLLGFDSDKVAPLLALANYIANRQN”, the “soluble on expression in E. coli” value was “soluble”.
For “MMSDQKDEEEYSHSSNRSEDEDEERTIDNEINRSPNKSYKLGNIIGNGSFGVVYEAICIDTSEQVAIKKVLQDPQYKNRELMIMKNLNHINIIYLKDYYYTESFKKNEKNIFLNVVMEYIPQTVHKYMKYYSRNNQALPMFLVKLYSYQLCRALSYIHSKFICHRDLKPQNLLIDPRTHTLKLCDFGSAKNLLAGQRSVSYICSRFYRAPELMLGSTNYTTHIDLWSLGCIIAEMILGYPIFSGQSSVDQLVRIIQVLGTPTEDQLKEMNPNYADIKFPDVKSKDLRKVFPKGTPDEAINLITQFLKYEPLKRLNPIEALADPFFDELRDPCIKLPKYIDKLPELFNFCKEEIQEMSMECRRKIIPKNVYEEFLMVDE” the value was “not soluble”; for “MMSLAWPLFRVTEQAALAAWPQTGCGDKNKIDGLAVTAMRQALNDVAFRGRVVIGEGEIDHAPMLWIGEEVGKGDGPEVDIAVDPIEGTRMVAMGQSNALAVMAFAPRDSLLHAPDMYMKKLVVNRLAAGAIDLSLPLTDNLRNVAKALGKPLDKLRMVTLDKPRLSAAIEEATQLGVKVFALPDGDVAASVLTCWQDNPYDVMYTIGGAPEGVISACAVKALGGDMQAELIDFCQAKGDYTENRQIAEQERKRCKAMGVDVNRVYSLDELVRGNDILFSATGVTGGELVNGIQQTANGVRTQTLLIGGADQTCNIIDSLH”, “soluble”; for “MMSLVIAFISCSKSDEDKVIKEENPKITSDTFSAVIKDGFTGENGEDLILYKNLKNIVVGDYIPYDITIKDEDSANTKYILTPTRIGEKNHQYFQIDYDVYLDNDKGEKVRVNAITFDKIGKHRFYIKPLVPGTFKLSFVLQREQNGQKVQDIKFPTLNFNVVKITVYKTQIFIGLYEVRFYIEDGENETDIYLSPDPSVKQTFVSKYNDMTYTGDFNVKEFCKVGYYSSTIKTITSITIIQKREGEEEYRIEYYNIPIP”, “not soluble”.
As to “MMTDLSTPDLPRMSAAIAEPTSHDPDSGGHFGGPSGWGGRYVPEALMAVIEEVTAAYQKERVSQDFLDDLDRLQANYAGRPSPLYEATRLSQHAGSARIFLKREDLNHTGSHKINNVLGQALLARRMGKTRVIAETGAGQHGVATATACALLGLDCVIYMGGIDTARQALNVARMRLLGAEVVAVQTGSKTLKDAINEAFRDWVANADNTYYCFGTAAGPHPFPTMVRDFQRIIGMEARVQIQGQAGRLPDAVVACVGGGSNAIGIFHAFLDDPGVRLVGFEAAGDGVETGRHAATFTAGSPGAFHGSFSYLLQDEDGQTIESHSISAGLDYPGVGPEHAWLKEAGRVDYRPITDSEAMDAFGLLCRMEGIIPAIESAHAVAGALKLGVELGRGAVIVVNLSGRGDKDVETAAKWFGLLGND”, the “soluble on expression in E. coli” value is reported as “soluble”.
For “MMYRIRNWLVATLLLLCAQVGAATLSDIQVSNGNQQARITLSFIGDPDYAFSHQSKRTVALDIKQTGVIQGLPLLFSGNNLVKAIRSGTPKDAQTLRLVVDLTENGKTEAVKRQNGSNYTVVFTINADAPPPPPPPPVVVKRVETPTVVAPRVSEPARNPFKTESNRTTGVISSNTVTRPAARATANNGDKIIIAIDAGHGGQDPGAIGPGGTREKNVTIAIARKLRTLLNDDPMFKGVLTRDGDYFISVMGRSDVARKQNANFLVSIHADAAPNRSATGASVWVLSNRRANSEMASWLEQHEKQSELLGGAGDVLANSQSDPYLSQAVLDLQFGHSQRVGYDVATSMISQLQRIGEIHKRRPEHASLGVLRSPDIPSVLVETGFISNNSEERLLASDDYQQQLAEAIYKGLRNYFLAHPMQSAPQGATAQTASTVTTPDRTLPN” the value was “not soluble”.
As to “MNAFNLIIIGDEILHGSSQDKHFAFFKSLLESKGLKLNQVQYLPDEPDLLVRQLRRSFSDGMPTFVTGGIGATPDDHTRQAAAAALDLPVVRHSEAAKFIEGITQKRGEPLDSPEHAQRLKMADFPEGAELVPNPFNNIAGFSIREHYFFPGFPVMAHPMAEWVLETYYADRFNQTERGSRSVYVFEQPESRITPLMEHIEQTYPGVRSYSLPSVGWTHSDGTQVKPHIEFGIKAEGEAVNLLDAAWAEVLHSLDGLGAELKNRVN”, the “soluble on expression in E. coli” value was “not soluble”.
In the case of “MNAGILGVGKYVPEKIVTNFDLEKIMDTSDEWIRTRTGIEERRIARDDEYTHDLAYEAAKVAIKNAGLTPDDIDLFIVATVTQEATFPSVANIIQDRLGAKNAAGMDVEAACAGFTFGVVTAAQFIKTGAYKNIVVVGADKLSKITNWDDRTTAVLFGDGAGAVVMGPVSDDHGLLSFDLGSDGSGGKYLNLDENKKIYMNGREVFRFAVRQMGEASLRVLERAGLEKEDLDLLIPHQANIRIMEASRERLNLPEEKLMKTVHKYGNTSSSSIALALVDAVEEGRIKDNDNVLLVGFGGGLTWGALIIRWGK”, the “soluble on expression in E. coli” value is given as “not soluble”.
